# Measured values reported in the supplement of paper PMC9112550, “Optimization of the antimicrobial peptide Bac7 by deep mutational scanning” (BMC Biology, 2022).
# System: Escherichia coli TOP10
# Test: shrunken log2 fold change of peptide-encoding DNA abundance (4.5 h post-induction vs induction); higher = less antimicrobial activity (less host growth inhibition)
# Conditions: time post-induction: 4.5 h; library: site-saturation at positions 5, 18, 19, 20
# 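Further: peptides expressed intracellularly from a pBAD plasmid library in pooled LB shake-flask culture, induced with 0.3% L-arabinose, DNA abundance read by NGS, three biological replicates, DESeq2 with apeglm shrinkage.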
row,Sequence,shrunken log2 fold change
1,RRIRRRPPRLPRPRPRPPIQPRP,0.16
2,RRIRRRPPRLPRPRPRPPKDPRP,0.472
3,RRIRRRPPRLPRPRPRPPLNPRP,0.696
4,RRIRRRPPRLPRPRPRPPMNPRP,0.172
5,RRIRRRPPRLPRPRPRPPNGPRP,0.407
6,RRIRRRPPRLPRPRPRPPNMPRP,0.402
7,RRIRRRPPRLPRPRPRPPNYPRP,0.0616
8,RRIRRRPPRLPRPRPRPPPMPRP,0.959
9,RRIRRRPPRLPRPRPRPPQQPRP,0.951
10,RRIRRRPPRLPRPRPRPPSCPRP,0.301
11,RRIRRRPPRLPRPRPRPPSIPRP,-0.212
12,RRIRRRPPRLPRPRPRPPSRPRP,0.446
13,RRIRRRPPRLPRPRPRPPTFPRP,0.0767
14,RRIRRRPPRLPRPRPRPPVAPRP,0.769
15,RRIRRRPPRLPRPRPRPPVEPRP,0.593
16,RRIRRRPPRLPRPRPRPPVGPRP,0.366
17,RRIRRRPPRLPRPRPRPPVKPRP,0.369
18,RRIRRRPPRLPRPRPRPPVNPRP,0.282
19,RRIRRRPPRLPRPRPRPPVPPRP,0.753
20,RRIRRRPPRLPRPRPRPPVRPRP,0.437
21,RRIRRRPPRLPRPRPRPPWHPRP,0.516
22,RRIRRRPPRLPRPRPRPPYHPRP,0.124
23,RRIRRRPPRLPRPRPRPPYIPRP,0.141
24,RRIRRRPPRLPRPRPRPPYLPRP,0.0685
25,RRIRRRPPRLPRPRPRPPYNPRP,-0.019

row,Sequence,shrunken log2 fold change
1,RRIRRRPPRLPRPRPRPPYRPRP,0.113
2,RRIRRRPPRLPRPRPRPQAFPRP,0.0653
3,RRIRRRPPRLPRPRPRPQAHPRP,0.544
4,RRIRRRPPRLPRPRPRPQANPRP,0.118
5,RRIRRRPPRLPRPRPRPQARPRP,0.246
6,RRIRRRPPRLPRPRPRPQCAPRP,0.647
7,RRIRRRPPRLPRPRPRPQCWPRP,0.557
8,RRIRRRPPRLPRPRPRPQEMPRP,0.51
9,RRIRRRPPRLPRPRPRPQFMPRP,-0.139
10,RRIRRRPPRLPRPRPRPQGSPRP,0.0234
11,RRIRRRPPRLPRPRPRPQGYPRP,-0.0842
12,RRIRRRPPRLPRPRPRPQHDPRP,0.478
13,RRIRRRPPRLPRPRPRPQHMPRP,-0.296
14,RRIRRRPPRLPRPRPRPQIFPRP,-0.0198
15,RRIRRRPPRLPRPRPRPQILPRP,0.0332
16,RRIRRRPPRLPRPRPRPQLPPRP,0.283
17,RRIRRRPPRLPRPRPRPQLQPRP,0.413
18,RRIRRRPPRLPRPRPRPQNVPRP,0.0718
19,RRIRRRPPRLPRPRPRPQSGPRP,0.121
20,RRIRRRPPRLPRPRPRPQTTPRP,0.137
21,RRIRRRPPRLPRPRPRPQVKPRP,0.132
22,RRIRRRPPRLPRPRPRPQWEPRP,-0.0504
23,RRIRRRPPRLPRPRPRPQYHPRP,-0.145
24,RRIRRRPPRLPRPRPRPRACPRP,0.352
25,RRIRRRPPRLPRPRPRPRAGPRP,0.638

row,Sequence,shrunken log2 fold change
1,RRIRRRPPRLPRPRPRPRCAPRP,0.469
2,RRIRRRPPRLPRPRPRPRDDPRP,0.14
3,RRIRRRPPRLPRPRPRPRDHPRP,0.397
4,RRIRRRPPRLPRPRPRPREGPRP,1.33
5,RRIRRRPPRLPRPRPRPREPPRP,1.04
6,RRIRRRPPRLPRPRPRPRETPRP,1.13
7,RRIRRRPPRLPRPRPRPRFRPRP,0.455
8,RRIRRRPPRLPRPRPRPRKDPRP,0.302
9,RRIRRRPPRLPRPRPRPRKRPRP,0.859
10,RRIRRRPPRLPRPRPRPRKSPRP,0.339
11,RRIRRRPPRLPRPRPRPRLAPRP,0.62
12,RRIRRRPPRLPRPRPRPRLIPRP,0.874
13,RRIRRRPPRLPRPRPRPRLNPRP,0.522
14,RRIRRRPPRLPRPRPRPRMKPRP,0.309
15,RRIRRRPPRLPRPRPRPRMMPRP,0.351
16,RRIRRRPPRLPRPRPRPRNDPRP,0.195
17,RRIRRRPPRLPRPRPRPRNPPRP,0.345
18,RRIRRRPPRLPRPRPRPRPEPRP,0.343
19,RRIRRRPPRLPRPRPRPRRDPRP,0.19
20,RRIRRRPPRLPRPRPRPRSCPRP,0.182
21,RRIRRRPPRLPRPRPRPRTNPRP,0.482
22,RRIRRRPPRLPRPRPRPRTPPRP,0.616
23,RRIRRRPPRLPRPRPRPRTYPRP,-0.213
24,RRIRRRPPRLPRPRPRPRWVPRP,0.407
25,RRIRRRPPRLPRPRPRPRYCPRP,0.216
